T1: FcγRIIb (human, UniProt P31994 43-217)
T1 construct: extracellular domain; also called FcgRIIb; 2b
T1 sequence (looked up): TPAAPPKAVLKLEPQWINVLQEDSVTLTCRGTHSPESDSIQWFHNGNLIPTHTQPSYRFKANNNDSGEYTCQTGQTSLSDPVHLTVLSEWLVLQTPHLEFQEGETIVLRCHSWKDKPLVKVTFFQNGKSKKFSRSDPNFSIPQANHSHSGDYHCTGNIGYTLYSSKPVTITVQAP


Assays:
FcγRIIb = biological target: T1, FcγRIIb; assay: SPR (Biacore), relative to GpH7-A5/GpH7-B3/GpL16-k0 = 100
Protocol: (§1) The heterodimerized antibodies He Abs in which one of the H chains was introduced with an alteration were assayed for their binding activities to each activating FcγR and inhibitory FcγR according to the method described in Example 4. […] The activating FcγRs in FIGS. 26, 27, 28, and 29 are FcγRIa, FcγRIIa (R), FcγRIIa (H), and FcγRIIIa, respectively.
(§2) Analysis of interaction between objective antibody and the FcγR was carried out using Biacore T100 (GE Healthcare). HBS-EP+ (GE Healthcare) was used as the running buffer, and the measurement temperature was set to 25° C. Chips produced by immobilizing the antigen peptide by the amine coupling method to a Series S Sencor Chip CM5 (GE Healthcare), or alternatively, chips produced by allowing preliminarily biotinylated antigen peptides to interact with and immobilize onto a Series S Sensor Chip SA (certified) (GE Healthcare) were used. Antibodies of interest were captured onto an antigen peptide-immobilized chip, and allowed to interact to each FcγR diluted with running buffer. To regenerate and repeatedly use the chip, the antibodies captured on the chip were washed off by reacting 10 mM glycine-HCl, pH 1.5.

FcγRIa = biological target: T2, FcγRIa (human, UniProt P12314 16-292); assay: as above
T2 construct: extracellular domain; also called FcgRI; FcgRIa
T2 sequence (P12314 16-292): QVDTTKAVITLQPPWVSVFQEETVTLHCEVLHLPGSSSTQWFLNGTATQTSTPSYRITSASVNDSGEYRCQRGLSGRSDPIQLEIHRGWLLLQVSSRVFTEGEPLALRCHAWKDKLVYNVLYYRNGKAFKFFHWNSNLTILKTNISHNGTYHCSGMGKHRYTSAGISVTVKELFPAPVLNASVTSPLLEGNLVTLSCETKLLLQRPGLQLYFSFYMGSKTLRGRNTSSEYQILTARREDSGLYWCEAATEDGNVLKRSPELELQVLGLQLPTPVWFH
Protocol: as §1, §2

| He/Con_2b (IIb binding) (FcγRIIb) | He/Con_1a (Ia binding) (FcγRIa) | Binder |
| --- | --- | --- |
| 89.5 relative (control = 100) | 104 relative (control = 100) | GpH7-A5/GpH7-B3 variant I336_14T/GpL16-k0 (antibody, human IgG1, kappa, heterodimerized IgG1, one H chain mutated; also called He Ab) heavy 1: not shown heavy 2: not shown light: DIVMTQSPLSLPVTPGEPASISCQASESLVHSNRNTYLHWYLQKPGQSPQLLIYKVSNRFSGVPDRFSGSGSGTDFTLKISRVEAEDVGVYYCSQNTHVPPTFGQGTKVEIERTVAAPSVFIFPPSDEQLKSGTASVVCLLNNFYPREAKVQWKVDNALQSGNSQESVTEQDSKDSTYSLSSTLTLSKADYEKHKVYACEVTHQGLSSPVTKSFNRGEC |
| 92 relative (control = 100) | 107 relative (control = 100) | GpH7-A5/GpH7-B3 variant S337_01G/GpL16-k0 (antibody, human IgG1, kappa, heterodimerized IgG1, one H chain mutated; also called He Ab) heavy 1: not shown heavy 2: not shown light: DIVMTQSPLSLPVTPGEPASISCQASESLVHSNRNTYLHWYLQKPGQSPQLLIYKVSNRFSGVPDRFSGSGSGTDFTLKISRVEAEDVGVYYCSQNTHVPPTFGQGTKVEIERTVAAPSVFIFPPSDEQLKSGTASVVCLLNNFYPREAKVQWKVDNALQSGNSQESVTEQDSKDSTYSLSSTLTLSKADYEKHKVYACEVTHQGLSSPVTKSFNRGEC |
| 68.2 relative (control = 100) | 103 relative (control = 100) | GpH7-A5/GpH7-B3 variant I336_15Y/GpL16-k0 (antibody, human IgG1, kappa, heterodimerized IgG1, one H chain mutated; also called He Ab) heavy 1: not shown heavy 2: not shown light: DIVMTQSPLSLPVTPGEPASISCQASESLVHSNRNTYLHWYLQKPGQSPQLLIYKVSNRFSGVPDRFSGSGSGTDFTLKISRVEAEDVGVYYCSQNTHVPPTFGQGTKVEIERTVAAPSVFIFPPSDEQLKSGTASVVCLLNNFYPREAKVQWKVDNALQSGNSQESVTEQDSKDSTYSLSSTLTLSKADYEKHKVYACEVTHQGLSSPVTKSFNRGEC |
| 97.6 relative (control = 100) | 108 relative (control = 100) | GpH7-A5/GpH7-B3 variant I336_18N/GpL16-k0 (antibody, human IgG1, kappa, heterodimerized IgG1, one H chain mutated; also called He Ab) heavy 1: not shown heavy 2: not shown light: DIVMTQSPLSLPVTPGEPASISCQASESLVHSNRNTYLHWYLQKPGQSPQLLIYKVSNRFSGVPDRFSGSGSGTDFTLKISRVEAEDVGVYYCSQNTHVPPTFGQGTKVEIERTVAAPSVFIFPPSDEQLKSGTASVVCLLNNFYPREAKVQWKVDNALQSGNSQESVTEQDSKDSTYSLSSTLTLSKADYEKHKVYACEVTHQGLSSPVTKSFNRGEC |

Continued, binder first:

| Binder | He/Con_2b (IIb binding) (FcγRIIb) | He/Con_1a (Ia binding) (FcγRIa) |
| --- | --- | --- |
| GpH7-A5/GpH7-B3 variant S337_02A/GpL16-k0 (antibody, human IgG1, kappa, heterodimerized IgG1, one H chain mutated; also called He Ab) heavy 1: not shown heavy 2: not shown light: DIVMTQSPLSLPVTPGEPASISCQASESLVHSNRNTYLHWYLQKPGQSPQLLIYKVSNRFSGVPDRFSGSGSGTDFTLKISRVEAEDVGVYYCSQNTHVPPTFGQGTKVEIERTVAAPSVFIFPPSDEQLKSGTASVVCLLNNFYPREAKVQWKVDNALQSGNSQESVTEQDSKDSTYSLSSTLTLSKADYEKHKVYACEVTHQGLSSPVTKSFNRGEC | 97.2 relative (control = 100) | 106 relative (control = 100) |
| GpH7-A5/GpH7-B3 variant S337_03V/GpL16-k0 (antibody, human IgG1, kappa, heterodimerized IgG1, one H chain mutated; also called He Ab) heavy 1: not shown heavy 2: not shown light: DIVMTQSPLSLPVTPGEPASISCQASESLVHSNRNTYLHWYLQKPGQSPQLLIYKVSNRFSGVPDRFSGSGSGTDFTLKISRVEAEDVGVYYCSQNTHVPPTFGQGTKVEIERTVAAPSVFIFPPSDEQLKSGTASVVCLLNNFYPREAKVQWKVDNALQSGNSQESVTEQDSKDSTYSLSSTLTLSKADYEKHKVYACEVTHQGLSSPVTKSFNRGEC | 98.9 relative (control = 100) | 107 relative (control = 100) |
| GpH7-A5/GpH7-B3 variant I336_19Q/GpL16-k0 (antibody, human IgG1, kappa, heterodimerized IgG1, one H chain mutated; also called He Ab) heavy 1: not shown heavy 2: not shown light: DIVMTQSPLSLPVTPGEPASISCQASESLVHSNRNTYLHWYLQKPGQSPQLLIYKVSNRFSGVPDRFSGSGSGTDFTLKISRVEAEDVGVYYCSQNTHVPPTFGQGTKVEIERTVAAPSVFIFPPSDEQLKSGTASVVCLLNNFYPREAKVQWKVDNALQSGNSQESVTEQDSKDSTYSLSSTLTLSKADYEKHKVYACEVTHQGLSSPVTKSFNRGEC | 58.2 relative (control = 100) | 104 relative (control = 100) |
| GpH7-A5/GpH7-B3 variant I336_16H/GpL16-k0 (antibody, human IgG1, kappa, heterodimerized IgG1, one H chain mutated; also called He Ab) heavy 1: not shown heavy 2: not shown light: DIVMTQSPLSLPVTPGEPASISCQASESLVHSNRNTYLHWYLQKPGQSPQLLIYKVSNRFSGVPDRFSGSGSGTDFTLKISRVEAEDVGVYYCSQNTHVPPTFGQGTKVEIERTVAAPSVFIFPPSDEQLKSGTASVVCLLNNFYPREAKVQWKVDNALQSGNSQESVTEQDSKDSTYSLSSTLTLSKADYEKHKVYACEVTHQGLSSPVTKSFNRGEC | 85.8 relative (control = 100) | 101 relative (control = 100) |

From patent US20180155451A1 (published 2018)
